Values quoted from earlier work in PMC10999626.

Target: FcRn (Mus musculus) (UniProt Q61559)
Assay: BLI

Sequence of human IgG4 (P01861 whole entry): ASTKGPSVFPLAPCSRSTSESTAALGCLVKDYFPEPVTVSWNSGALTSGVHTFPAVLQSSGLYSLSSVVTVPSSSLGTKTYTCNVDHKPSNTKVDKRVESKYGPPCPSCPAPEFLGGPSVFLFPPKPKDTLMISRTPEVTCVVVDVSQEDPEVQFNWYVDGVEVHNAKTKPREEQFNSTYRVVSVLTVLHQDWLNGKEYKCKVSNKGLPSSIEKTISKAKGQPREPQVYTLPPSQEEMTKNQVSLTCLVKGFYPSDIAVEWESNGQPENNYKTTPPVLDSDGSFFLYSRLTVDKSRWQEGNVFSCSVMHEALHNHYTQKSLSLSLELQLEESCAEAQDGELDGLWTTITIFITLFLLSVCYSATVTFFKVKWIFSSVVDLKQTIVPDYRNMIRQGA
Sequence of FcRn (Mus musculus) (Q61559 22-365): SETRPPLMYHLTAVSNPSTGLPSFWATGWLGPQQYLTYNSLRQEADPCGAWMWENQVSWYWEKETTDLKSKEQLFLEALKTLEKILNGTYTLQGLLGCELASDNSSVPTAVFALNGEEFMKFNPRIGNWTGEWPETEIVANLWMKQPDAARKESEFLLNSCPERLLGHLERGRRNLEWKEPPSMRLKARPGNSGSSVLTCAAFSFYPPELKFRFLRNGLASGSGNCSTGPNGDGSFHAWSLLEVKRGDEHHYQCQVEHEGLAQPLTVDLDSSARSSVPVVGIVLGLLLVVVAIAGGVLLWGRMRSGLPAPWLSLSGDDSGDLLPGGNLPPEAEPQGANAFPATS

- Kd: 6 nM
Substance: human IgG4 (from UniProt P01861)
